Key:
Assay in all cases: cell_activity
[1] = molecular target: SpCas9 K855A (Streptococcus pyogenes) (UniProt Q99ZW2)
[2] = test system: SpCas9 R976A R976A (Streptococcus pyogenes)
[3] = molecular target: SpCas9 K810A K810A (Streptococcus pyogenes) (UniProt Q99ZW2)
[4] = molecular target: SpCas9 R1060A R1060A (Streptococcus pyogenes) (UniProt Q99ZW2)
[5] = molecular target: SpCas9 K1003A K1003A (Streptococcus pyogenes) (UniProt Q99ZW2)
[6] = molecular target: SpCas9 R780A R780A (Streptococcus pyogenes) (UniProt Q99ZW2)
[7] = test system: SpCas9 H982A H982A (Streptococcus pyogenes)
[8] = molecular target: SpCas9 K848A K848A (Streptococcus pyogenes) (UniProt Q99ZW2)

Substance	activity ([1]; WT 8.8) [% indel]	activity ([2]; WT 8.8) [% indel]	activity ([3]; WT 8.8) [% indel]	activity ([4]; WT 8.8) [% indel]	activity ([5]; WT 8.8) [% indel]	activity ([6]; WT 8.8) [% indel]	activity ([7]; WT 8.8) [% indel]	activity ([8]; WT 8.8) [% indel]	activity ([1]; WT 10.5, on-target 25.1 in same table) [% indel]	activity ([2]; WT 10.5) [% indel]	activity ([3]; WT 10.5) [% indel]	activity ([4]; WT 10.5) [% indel]	activity ([5]; WT 10.5) [% indel]	activity ([6]; WT 10.5) [% indel]	activity ([7]; WT 10.5) [% indel]	activity ([8]; WT 10.5) [% indel]
EMX1(1) sgRNA guide ; EMX1 OT46	0.3	0.1	0.1	1.8	2.8	0.1	0.4	0.1	–	–	–	–	–	–	–	–
EMX1(1) sgRNA guide ; EMX1 OT25	–	–	–	–	–	–	–	–	0.2	0.1	0.1	1.3	4.1	0	0.5	0.1
